Target: L7Ae (Pyrococcus furiosus, UniProt Q8U160 1-123)
Assay: SEC

B1: Nop5 (L148K, V223E) (natural protein)
chain: MKAFISENVRGIYAFDENGNLIEKRYFTDKPEKVLDQLLKGEITKDLEELLNSLKEKGYDEFVFEHPELSRRAKELGFSATTEFPNIAGERLRSNPEEFLGENWFEEYYKVGVALTRMRIQEQSGARDKMVIQAIEALDDVDKVINLKVARLREWYSLHFPELDELLPKHPQYVAFVKTVGHRDNINEEVLRELGLSEEKIKKILEAKEKTMGAWMDQTDIEEVRQLAEEIDRLYQLRKKLEDYIDRAMDDVAPNLKALVGAKLAARLISLAGGLRELAMMPSSTIQVLGAEKALFRHLRTGAKPPKHGVIYQYPAINRSPWWQRGKIARALAGKLAIAARVDYFSGEYIAEELKKELEARIREIKEKYPKPPKRKREERKGKKPWKKDKKKKKKKEKPRRR
binding result: binds

— paper PMC4836650 (RNA, 2016)
